Consider 27 molecules from US20250304650A1.

The labels stand for the following.
B1: feline IgG1a Fc variant S252W (CH2-CH3) with SASA tag (Fc fusion, part only; not given: SASA tag, not shown: another chain or arm of the molecule; small tags and cut ends)
Fc: PPEMLGGPSIFIFPPKPKDTLWISRTPEVTCLVVDLGPDDSDVQITWFVDNTQVYTAKTSPREEQFNSTYRVVSVLPILHQDWLKGKEFKCKVNSKSLPSPIERTISKAKGQPHEPQVYVLPPAQEELSRNKVSVTCLIKSFHPPDIAVEWEITGQPEPENNYRTTPPQLDSDGTYFVYSKLSVDRSHWQRGNTYTCSVSHEALHSHHTQKSLTQSPGK
B2: feline IgG1a Fc variant S428L (CH2-CH3) with SASA tag (Fc fusion, part only; not given: SASA tag, not shown: another chain or arm of the molecule; small tags and cut ends)
Fc: B1 Fc with W22S, S200L
B3: feline IgG1a Fc variant S434W (CH2-CH3) with SASA tag (Fc fusion, part only; not given: SASA tag, not shown: another chain or arm of the molecule; small tags and cut ends)
Fc: B1 Fc with W22S, S206W
B4: feline IgG1a Fc variant S428Y (CH2-CH3) with SASA tag (Fc fusion, part only; not given: SASA tag, not shown: another chain or arm of the molecule; small tags and cut ends)
Fc: B1 Fc with W22S, S200Y
B5: feline IgG1a Fc variant S428M (CH2-CH3) with SASA tag (Fc fusion, part only; not given: SASA tag, not shown: another chain or arm of the molecule; small tags and cut ends)
Fc: B1 Fc with W22S, S200M
B6: wild-type feline IgG1a Fc (CH2 and CH3 domains) with SASA tag (Fc fusion, part only; not given: SASA tag, not shown: another chain or arm of the molecule; small tags and cut ends)
Fc: B1 Fc with W22S
B7: feline IgG1a Fc variant S252F (CH2-CH3) with SASA tag (Fc fusion, part only; not given: SASA tag, not shown: another chain or arm of the molecule; small tags and cut ends)
Fc: B1 Fc with W22F
B8: feline IgG1a Fc variant S434F (CH2-CH3) with SASA tag (Fc fusion, part only; not given: SASA tag, not shown: another chain or arm of the molecule; small tags and cut ends)
Fc: B1 Fc with W22S, S206F
B9: feline IgG1a Fc variant S252Y (CH2-CH3) with SASA tag (Fc fusion, part only; not given: SASA tag, not shown: another chain or arm of the molecule; small tags and cut ends)
Fc: B1 Fc with W22Y
B10: feline IgG1a Fc variant S434H (CH2-CH3) with SASA tag (Fc fusion, part only; not given: SASA tag, not shown: another chain or arm of the molecule; small tags and cut ends)
Fc: B1 Fc with W22S, S206H
B11: anti-NGF feline IgG1a, Fc variant R334D, R301L (antibody, part only; not given: anti-NGF variable domains, light chain, not shown: another chain or arm of the molecule; small tags and cut ends)
Fc: B1 Fc with W22S, R71L, R104D
B12: anti-NGF feline IgG1a, Fc variant T286E, S428R (antibody, part only; not given: anti-NGF variable domains, not shown: another chain or arm of the molecule; small tags and cut ends)
Fc: B1 Fc with W22S, T56E, S200R
B13: anti-NGF feline IgG1a, Fc variant S434Y, S426L (antibody, part only; not given: anti-NGF variable domains, light chain, not shown: another chain or arm of the molecule; small tags and cut ends)
Fc: B1 Fc with W22S, S198L, S206Y
B14: anti-NGF feline IgG1a, Fc variant S434Y (antibody, part only; not given: Anti-NGF variable domains, not shown: another chain or arm of the molecule; small tags and cut ends)
Fc: B1 Fc with W22S, S206Y
B15: anti-NGF feline IgG1a, Fc variant S428H, T289H (antibody, part only; not given: anti-NGF variable domains, light chain, not shown: another chain or arm of the molecule; small tags and cut ends)
Fc: B1 Fc with W22S, T59H, S200H
B16: anti-NGF feline IgG1a, Fc variant S252Y, Q311R (antibody, part only; not given: anti-NGF variable domains, not shown: another chain or arm of the molecule; small tags and cut ends)
Fc: B1 Fc with W22Y, Q81R
B17: anti-NGF feline IgG1a, Fc variant S426L, S428H (antibody, part only; not given: anti-NGF variable domains, light chain, not shown: another chain or arm of the molecule; small tags and cut ends)
Fc: B1 Fc with W22S, S198L, S200H
B18: anti-NGF feline IgG1a, Fc variant S426L, T289H (antibody, part only; not given: Anti-NGF variable domains, not shown: another chain or arm of the molecule; small tags and cut ends)
Fc: B1 Fc with W22S, T59H, S198L
B19: anti-NGF feline IgG1a, Fc variant S252Y, Q311L (antibody, part only; not given: anti-NGF variable domains, not shown: another chain or arm of the molecule; small tags and cut ends)
Fc: B1 Fc with W22Y, Q81L
B20: anti-NGF feline IgG1a, Fc variant S252Y, Q311K (antibody, part only; not given: anti-NGF variable domains, light chain, not shown: another chain or arm of the molecule; small tags and cut ends)
Fc: B1 Fc with W22Y, Q81K
B21: anti-NGF feline IgG1a, Fc variant S428Y, S254R (antibody, part only; not given: Anti-NGF variable domains, not shown: another chain or arm of the molecule; small tags and cut ends)
Fc: B1 Fc with W22S, S24R, S200Y
B22: anti-NGF feline IgG1a, Fc variant S252Y (antibody, part only; not given: Anti-NGF variable domains, not shown: another chain or arm of the molecule; small tags and cut ends)
Fc: B1 Fc with W22Y
B23: anti-NGF feline IgG1a, Fc variant S434Y, S254R (antibody, part only; not given: anti-NGF variable domains, light chain, not shown: another chain or arm of the molecule; small tags and cut ends)
Fc: B1 Fc with W22S, S24R, S206Y
B24: anti-NGF feline IgG1a, Fc variant S252Y, Q311V (antibody, part only; not given: anti-NGF variable domains, light chain, not shown: another chain or arm of the molecule; small tags and cut ends)
Fc: B1 Fc with W22Y, Q81V
B25: anti-NGF feline IgG1a, Fc variant R334D, T437L (antibody, part only; not given: anti-NGF variable domains, light chain, not shown: another chain or arm of the molecule; small tags and cut ends)
Fc: B1 Fc with W22S, R104D, T209L
B26: anti-NGF feline IgG1a, Fc variant S252W (antibody, part only; not given: anti-NGF variable domains, light chain, not shown: another chain or arm of the molecule; small tags and cut ends)
Fc: B1 Fc
B27: anti-NGF feline IgG1a, Fc variant S428Y, Q311V, T286E (antibody, part only; not given: anti-NGF variable domains, light chain, not shown: another chain or arm of the molecule; small tags and cut ends)
Fc: B1 Fc with W22S, T56E, Q81V, S200Y

Numbering of substitutions follows the chain as printed. In names and notes the source's numbering stands. Several values for one entry are separate records, joined by “and”; a condition that tells them apart may be missing. Equal values may be shown once.

One experiment concerns the target feline FcRn (IgG receptor FcRn large subunit p51 with feline beta-2-microglobulin) (feline). Description: SPR Biacore 8K, Fc captured by SASA tag on BSA, pH 6.0.
As to B1, the dissociation constant Kd is 23.5 nM and 23.3 nM; the koff was 0.00538 s⁻¹ and 0.00545 s⁻¹; the kon is 228000 M⁻¹ s⁻¹ and 234000 M⁻¹ s⁻¹.

With B2, the Kd is 485 nM and 763 nM; the koff is 0.0788 s⁻¹ and 0.0803 s⁻¹; the kon was 162000 M⁻¹ s⁻¹ and 105000 M⁻¹ s⁻¹.

Consider B3, for which the Kd was 55.6 nM and 50.2 nM; the koff was 0.0175 s⁻¹ and 0.0202 s⁻¹; the kon is 314000 M⁻¹ s⁻¹ and 402000 M⁻¹ s⁻¹.

On to B4, for which the Kd was 528 nM and 565 nM; the koff was 0.103 s⁻¹ and 0.105 s⁻¹; the kon is 195000 M⁻¹ s⁻¹ and 187000 M⁻¹ s⁻¹.

In turn, B5 registered a Kd of 603 nM, a koff of 0.1 s⁻¹ and a kon of 166000 M⁻¹ s⁻¹.

Take B6: the Kd was 1190 nM and 1640 nM; the off-rate constant (koff) is 0.374 s⁻¹ and 0.195 s⁻¹; the kon is 314000 M⁻¹ s⁻¹ and 119000 M⁻¹ s⁻¹.

Regarding B7, the Kd was 470 nM and 492 nM; the koff was 0.0957 s⁻¹ and 0.101 s⁻¹; the kon is 203000 M⁻¹ s⁻¹ and 205000 M⁻¹ s⁻¹.

Take B8: the Kd was 41.7 nM and 43.3 nM; the koff was 0.0158 s⁻¹ and 0.0161 s⁻¹; the kon is 378000 M⁻¹ s⁻¹ and 371000 M⁻¹ s⁻¹.

As to B9, the dissociation constant (Kd) is 103 nM and 102 nM; the koff is 0.0265 s⁻¹ and 0.0263 s⁻¹; the kon was 257000 M⁻¹ s⁻¹ and 258000 M⁻¹ s⁻¹.

B10: the equilibrium dissociation constant (Kd) is 316 nM and 444 nM; the koff is 0.0761 s⁻¹ and 0.0888 s⁻¹; the kon was 241000 M⁻¹ s⁻¹ and 200000 M⁻¹ s⁻¹.

The target of a further experiment is feline FcRn (FCN-F82W3, Acrobiosystems) (feline). Description: SPR Carterra, IgG coupled, pH 6.0.
B11 had a Kd of 90.7 nM, an off-rate (koff) of 0.0417 s⁻¹ and a kon of 460000 M⁻¹ s⁻¹.

As to B12, the Kd came out at 6.9 nM, the koff stood at 0.00648 s⁻¹ and the on-rate constant (kon) is 939000 M⁻¹ s⁻¹.

In turn, B13 came in with a Kd of 3 nM, a koff of 0.0044 s⁻¹ and an association rate constant (kon) of 1.48e+06 M⁻¹ s⁻¹.

For the molecule B14, the Kd was found to be 5.2 nM, the koff worked out at 0.00629 s⁻¹ and the kon was 1.22e+06 M⁻¹ s⁻¹.

In turn, B15 returned a Kd of 149 nM, a koff of 0.0526 s⁻¹ and a kon of 352000 M⁻¹ s⁻¹.

B16 returned a Kd of 6.9 nM, a koff of 0.0064 s⁻¹ and a kon of 926000 M⁻¹ s⁻¹.

The molecule B17 gave a Kd of 100 nM, a koff of 0.0445 s⁻¹ and a kon of 445000 M⁻¹ s⁻¹.

Regarding B18, the equilibrium dissociation constant (Kd) is 115 nM, the koff was 0.0622 s⁻¹ and the kon was determined as 542000 M⁻¹ s⁻¹.

In the case of B19, the Kd amounted to 7 nM, the dissociation rate constant (koff) is 0.00516 s⁻¹ and the kon turned out to be 740000 M⁻¹ s⁻¹.

Turning to B20, the Kd came to 5.6 nM, the koff worked out at 0.00779 s⁻¹ and the kon was 1.39e+06 M⁻¹ s⁻¹.

B21 displayed a Kd of 48.1 nM, a koff of 0.0265 s⁻¹ and a kon of 552000 M⁻¹ s⁻¹.

As for B22, the equilibrium dissociation constant (Kd) came out at 9.8 nM, the koff stood at 0.0095 s⁻¹ and the kon was found to be 974000 M⁻¹ s⁻¹.

Take B23: the Kd turned out to be 2.1 nM, the koff was determined as 0.00568 s⁻¹ and the kon came to 2.75e+06 M⁻¹ s⁻¹.

Turning to B24, the Kd amounted to 3.8 nM, the koff came to 0.00405 s⁻¹ and the kon came out at 1.06e+06 M⁻¹ s⁻¹.

B25 displayed a Kd of 95.7 nM, a koff of 0.0437 s⁻¹ and a kon of 457000 M⁻¹ s⁻¹.

The target of a further experiment is feline FcRn (IgG receptor FcRn large subunit p51 with feline beta-2-microglobulin) (feline). The experiment is described as follows: SPR Biacore 8K+, IgG on C1 chip, pH 5.9, 1:1 kinetic fit.
B26 registered a dissociation constant Kd of 4.01 nM.

In turn, B27 came in with a Kd of 6.11 nM.

In a further experiment the target is feline FcRn (FCN-F82W3, Acrobiosystems) (feline). Description: SPR Carterra, IgG coupled, pH 7.4.
In the case of B12, the Kd was 12.3 nM, the koff amounted to 0.113 s⁻¹ and the kon was 9.17e+06 M⁻¹ s⁻¹.

Turning to B13, the Kd worked out at 185 nM, the koff came to 0.118 s⁻¹ and the kon came to 636000 M⁻¹ s⁻¹.

Turning to B20, the Kd is 46.9 nM, the koff was found to be 0.112 s⁻¹ and the kon came to 2.39e+06 M⁻¹ s⁻¹.

Consider B24, for which the Kd was determined as 306 nM, the koff was found to be 0.0528 s⁻¹ and the kon came to 173000 M⁻¹ s⁻¹.
